Laboratory results: patent publication US20250276077A1, “EPHA2 ANTIBODIES” (Immunome, Inc., priority 2022, published 2025)

Key:
[1] = molecular target: Human EphA2 (ephrin receptor A2), native, in human tumor tissue (human) (UniProt P29317); experiment: IF tumor tissue NSCLC-Adeno, 1 ug/ml
[2] = molecular target: Human EphA2 (ephrin receptor A2), native, in human tumor tissue (human) (UniProt P29317); experiment: IF tumor tissue NSCLC-SQ, 30 ug/ml
[3] = molecular target: Human EphA2 (ephrin receptor A2), native, in human tumor tissue (human) (UniProt P29317); experiment: IF tumor tissue URO, 1 ug/ml
[4] = molecular target: Human EphA2 (ephrin receptor A2), native, in human tumor tissue (human) (UniProt P29317); experiment: IF tumor tissue NSCLC-SQ, 0.1 ug/ml
[5] = molecular target: Human EphA2 (ephrin receptor A2), native, in human tumor tissue (human) (UniProt P29317); experiment: IF tumor tissue RCC-papillary, 1 ug/ml
[6] = molecular target: Human EphA2 (ephrin receptor A2), native, in human tumor tissue (human) (UniProt P29317); experiment: IF tumor tissue Uterine, 0.1 ug/ml
[7] = molecular target: C-terminally His-tagged hEphA2-FN2 (Thr437-Asn534+His tag) (human) (UniProt P29317); experiment: SPR Biacore T200, 25 C; mIgG2a as immobilized ligand, hEphA2-FN2-His analyte
[8] = molecular target: Human EphA2 (ephrin receptor A2), native, in human tumor tissue (human) (UniProt P29317); experiment: tissue staining of human cancer samples, 3 ug/ml
[9] = molecular target: Human EphA2 (ephrin receptor A2), native, in human tumor tissue (human) (UniProt P29317); experiment: IF tumor tissue NSCLC-Adeno, 30 ug/ml
[10] = molecular target: Human EphA2 (ephrin receptor A2), native, in human tumor tissue (human) (UniProt P29317); experiment: IF tumor tissue MELA, 0.3 ug/ml
[11] = molecular target: Human EphA2 (ephrin receptor A2), native, in human tumor tissue (human) (UniProt P29317); experiment: IF tumor tissue Uterine, 10 ug/ml
[12] = molecular target: Human EphA2 (ephrin receptor A2), native, in human tumor tissue (human) (UniProt P29317); experiment: IF tumor tissue STS, 30 ug/ml
[13] = molecular target: Human EphA2 (ephrin receptor A2), native, in human tumor tissue (human) (UniProt P29317); experiment: IF tumor tissue MELA, 0.1 ug/ml
[14] = molecular target: Human EphA2 (ephrin receptor A2), native, in human tumor tissue (human) (UniProt P29317); experiment: IF tumor tissue MELA, 1 ug/ml
[15] = molecular target: Human EphA2 (ephrin receptor A2), native, in human tumor tissue (human) (UniProt P29317); experiment: IF tumor tissue NSCLC-Adeno, 10 ug/ml
[16] = molecular target: Human EphA2 (ephrin receptor A2), native, in human tumor tissue (human) (UniProt P29317); experiment: IF tumor tissue Uterine, 0.3 ug/ml
[17] = molecular target: Human EphA2 (ephrin receptor A2), native, in human tumor tissue (human) (UniProt P29317); experiment: IF tumor tissue PANC, 3 ug/ml
[18] = molecular target: Human EphA2 (ephrin receptor A2), native, in human tumor tissue (human) (UniProt P29317); experiment: IF tumor tissue RCC-papillary, 3 ug/ml
[19] = molecular target: Human EphA2 (ephrin receptor A2), native, in human tumor tissue (human) (UniProt P29317); experiment: IF tumor tissue PANC, 1 ug/ml
[20] = molecular target: Human EphA2 (ephrin receptor A2), native, in human tumor tissue (human) (UniProt P29317); experiment: IF tumor tissue PANC, 0.3 ug/ml
[21] = molecular target: Human EphA2 (ephrin receptor A2), native, in human tumor tissue (human) (UniProt P29317); experiment: IF tumor tissue NSCLC-SQ, 3 ug/ml
[22] = molecular target: Human EphA2 (ephrin receptor A2), native, in human tumor tissue (human) (UniProt P29317); experiment: IF tumor tissue NSCLC-SQ, 10 ug/ml
[23] = molecular target: Human EphA2 (ephrin receptor A2), native, in human tumor tissue (human) (UniProt P29317); experiment: IF tumor tissue URO, 3 ug/ml
[24] = molecular target: Human EphA2 (ephrin receptor A2), native, in human tumor tissue (human) (UniProt P29317); experiment: IF tumor tissue NSCLC-Adeno, 3 ug/ml
[25] = molecular target: Human EphA2 (ephrin receptor A2), native, in human tumor tissue (human) (UniProt P29317); experiment: IF tumor tissue ESO, 10 ug/ml
[26] = molecular target: Human EphA2 (ephrin receptor A2), native, in human tumor tissue (human) (UniProt P29317); experiment: IF tumor tissue ESO, 0.3 ug/ml
[27] = molecular target: Human EphA2 (ephrin receptor A2), native, in human tumor tissue (human) (UniProt P29317); experiment: IF tumor tissue ESO, 3 ug/ml
[28] = molecular target: Human EphA2 (ephrin receptor A2), native, in human tumor tissue (human) (UniProt P29317); experiment: IF tumor tissue STS, 0.3 ug/ml
[29] = molecular target: Human EphA2 (ephrin receptor A2), native, in human tumor tissue (human) (UniProt P29317); experiment: IF tumor tissue RCC-papillary, 0.1 ug/ml
[30] = molecular target: Human EphA2 (ephrin receptor A2), native, in human tumor tissue (human) (UniProt P29317); experiment: IF tumor tissue URO, 10 ug/ml
[31] = molecular target: Human EphA2 (ephrin receptor A2), native, in human tumor tissue (human) (UniProt P29317); experiment: IF tumor tissue NSCLC-SQ, 0.3 ug/ml
[32] = molecular target: Human EphA2 (ephrin receptor A2), native, in human tumor tissue (human) (UniProt P29317); experiment: IF tumor tissue RCC-papillary, 0.3 ug/ml

Sequence of Human EphA2 (ephrin receptor A2), native, in human tumor tissue (human) (P29317 25-976): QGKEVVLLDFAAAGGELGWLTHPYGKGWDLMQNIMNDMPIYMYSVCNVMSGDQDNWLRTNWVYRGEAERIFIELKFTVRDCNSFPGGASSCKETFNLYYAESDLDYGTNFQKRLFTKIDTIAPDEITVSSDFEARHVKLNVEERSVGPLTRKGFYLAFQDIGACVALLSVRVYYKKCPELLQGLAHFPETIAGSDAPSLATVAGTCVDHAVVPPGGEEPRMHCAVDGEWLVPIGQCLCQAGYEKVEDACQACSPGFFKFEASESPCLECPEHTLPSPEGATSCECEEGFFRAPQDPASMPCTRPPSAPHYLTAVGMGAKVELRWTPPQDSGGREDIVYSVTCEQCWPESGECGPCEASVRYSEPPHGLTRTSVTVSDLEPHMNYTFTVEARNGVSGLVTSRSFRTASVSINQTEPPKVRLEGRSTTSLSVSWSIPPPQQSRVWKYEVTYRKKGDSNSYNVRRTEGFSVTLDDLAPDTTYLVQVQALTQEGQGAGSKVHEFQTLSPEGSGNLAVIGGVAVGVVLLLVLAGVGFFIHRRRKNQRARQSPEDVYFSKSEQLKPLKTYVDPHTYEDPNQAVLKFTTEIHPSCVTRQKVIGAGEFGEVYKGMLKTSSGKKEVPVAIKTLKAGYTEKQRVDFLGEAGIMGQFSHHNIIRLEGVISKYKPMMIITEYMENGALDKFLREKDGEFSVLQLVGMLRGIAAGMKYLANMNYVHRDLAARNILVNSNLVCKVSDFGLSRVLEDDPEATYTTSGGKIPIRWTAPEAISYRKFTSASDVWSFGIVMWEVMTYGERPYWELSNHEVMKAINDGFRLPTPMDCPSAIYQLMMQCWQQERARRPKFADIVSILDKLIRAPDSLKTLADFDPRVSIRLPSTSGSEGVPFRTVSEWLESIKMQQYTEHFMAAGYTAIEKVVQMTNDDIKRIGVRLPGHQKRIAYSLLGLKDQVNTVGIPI
Sequence of C-terminally His-tagged hEphA2-FN2 (Thr437-Asn534+His tag) (human) (P29317 437-534 limits assumed): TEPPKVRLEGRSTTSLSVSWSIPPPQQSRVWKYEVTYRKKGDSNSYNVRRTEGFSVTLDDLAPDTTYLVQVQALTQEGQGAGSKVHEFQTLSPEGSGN

tissue reactivity score [1]: 1
tissue reactivity score [2]: 2
tissue reactivity score [3]: 2
tissue reactivity score [4]: 1
tissue reactivity score [5]: 1
tissue reactivity score [6]: 1
Kd [7]: 4.3 nM
koff [7]: 0.0021 s⁻¹
kon [7]: 490000 M⁻¹ s⁻¹
Reactive (% of samples), Bladder Urothelial Carcinoma [8]: 77%
Reactive (% of samples), Breast Cancer [8]: 93%
Reactive (% of samples), Cervical Squamous Cell Carcinoma [8]: 75%
Reactive (% of samples), Colorectal Adenocarcinoma [8]: 85%
Reactive (% of samples), Head & Neck Squamous Cell Carcinoma [8]: 63%
Reactive (% of samples), Liver Hepatocellular Cell Carcinoma [8]: 39%
Reactive (% of samples), Melanoma [8]: 46%
Reactive (% of samples), Ovarian Cancer [8]: 71%
Reactive (% of samples), Soft Tissue Sarcoma [8]: 14%
Reactive (% of samples), Stomach Adenocarcinoma [8]: 88%
Reactive (% of samples), Testicular Cancer [8]: 17%
Reactive (% of samples), Thyroid Cancer [8]: 13%
Reactive (% of samples), Uterine Cancer [8]: 38%
tissue reactivity score [9]: 1
tissue reactivity score [10]: 2
tissue reactivity score [11]: 2
tissue reactivity score [12]: 2
tissue reactivity score [13]: 1
tissue reactivity score [14]: 2
tissue reactivity score [15]: 1
tissue reactivity score [16]: 2
tissue reactivity score [17]: 2
tissue reactivity score [18]: 2
tissue reactivity score [19]: 2
tissue reactivity score [20]: 2
tissue reactivity score [21]: 1
tissue reactivity score [22]: 1
tissue reactivity score [23]: 2
tissue reactivity score [24]: 1
tissue reactivity score [25]: 1
tissue reactivity score [26]: 1
tissue reactivity score [27]: 1
tissue reactivity score [28]: 1
tissue reactivity score [29]: 1
tissue reactivity score [30]: 2
tissue reactivity score [31]: 1
tissue reactivity score [32]: 1
Substance: AB-010018 (mouse monoclonal antibody precursor of DS-8895a; mouse IgG2a format)
